Experimental data: paper PMC10698503, “Phosphatase specificity principles uncovered by MRBLE:Dephos and global substrate identification” (Molecular Systems Biology, 2023)

B1: GAR1_HUMAN (protein, UniProt Q9NY12 1-217, looked up)
H/ACA ribonucleoprotein …: MSFRGGGRGGFNRGGGGGGFNRGGSSNHFRGGGGGGGGGNFRGGGRGGFGRGGGRGGFNKGQDQGPPERVVLLGEFLHPCEDDIVCKCTTDENKVPYFNAPVYLENKEQIGKVDEIFGQLRDFYFSVKLSENMKASSFKKLQKFYIDPYKLLPLQRFLPRPPGEKGPPRGGGRGGRGGGRGGGGRGGGRGGGFRGGRGGGGGGFRGGRGGGFRGRGH
B2: SF01_HUMAN (protein, UniProt Q15637 2-639, looked up)
Splicing factor 1: ATGANATPLDFPSKKRKRSRWNQDTMEQKTVIPGMPTVIPPGLTREQERAYIVQLQIEDLTRKLRTGDLGIPPNPEDRSPSPEPIYNSEGKRLNTREFRTRKKLEEERHNLITEMVALNPDFKPPADYKPPATRVSDKVMIPQDEYPEINFVGLLIGPRGNTLKNIEKECNAKIMIRGKGSVKEGKVGRKDGQMLPGEDEPLHALVTANTMENVKKAVEQIRNILKQGIETPEDQNDLRKMQLRELARLNGTLREDDNRILRPWQSSETRSITNTTVCTKCGGAGHIASDCKFQRPGDPQSAQDKARMDKEYLSLMAELGEAPVPASVGSTSGPATTPLASAPRPAAPANNPPPPSLMSTTQSRPPWMNSGPSESRPYHGMHGGGPGGPGGGPHSFPHPLPSLTGGHGGHPMQHNPNGPPPPWMQPPPPPMNQGPHPPGHHGPPPMDQYLGSTPVGSGVYRLHQGKGMMPPPPMGMMPPPPPPPSGQPPPPPSGPLPPWQQQQQQPPPPPPPSSSMASSTPLPWQQNTTTTTTSAGTGSIPPWQQQQAAAAASPGAPQMQGNPTMVPLPPGVQPPLPPGAPPPPPPPPPGSAGMMYAPPPPPPPPMDPSNFVTMMGMGVAGMPPFGMPPAPPPPPPQN
B3: EBP2_HUMAN (protein, UniProt Q99848 1-306, looked up)
Probable rRNA-processing …: MDTPPLSDSESESDESLVTDRELQDAFSRGLLKPGLNVVLEGPKKAVNDVNGLKQCLAEFKRDLEWVERLDVTLGPVPEIGGSEAPAPQNKDQKAVDPEDDFQREMSFYRQAQAAVLAVLPRLHQLKVPTKRPTDYFAEMAKSDLQMQKIRQKLQTKQAAMERSEKAKQLRALRKYGKKVQTEVLQKRQQEKAHMMNAIKKYQKGFSDKLDFLEGDQKPLAQRKKAGAKGQQMRKGPSAKRRYKNQKFGFGGKKKGSKWNTRESYDDVSSFRAKTAHGRGLKRPGKKGSNKRPGKRTREKMKNRTH

These molecules were tested on Venus-B55 (assay: Affinity purification (pulldown) of YFP/Venus-B55 from mitotic cells, label-free LC-MS/MS). Conditions: enrichment in Venus-B55 pulldown over Venus control, from 3 replicates each.
Assay type: binding, human
Description: (§1) We defined interactomes of PP1γ and B55α during mitosis using affinity purification of YFP‐tagged subunits and also proximity‐dependent ligation using miniTurbo to capture interactions at mitotic exit (Appendix Fig S8) (Branon et al, [2018]; Sears et al, [2019]). […] These identified proteins can constitute both regulators and substrates. […] To understand how these protein interactions might shape dephosphorylation, we first aimed at generating interactome networks and overlay regulated sites. We integrated interactomes and information from the STRING database (Szklarczyk et al, [2023]) with our regulated phosphorylation sites to generate a network of complexes and dephosphorylation sites (Fig 4C and Appendix Fig S9A). For PP1, we also integrated information on known and predicted RVxF motifs (Smith et al, [2019]). […] As an example, CASC5 (KNL1) could scaffold PP1 dephosphorylation of CENPC S261, a phosphorylation site in a nuclear localization sequence. In agreement with previous work, PP2A‐B55 regulated dephosphorylation of several nucleoporins at mitotic exit consistent with Nup153 and TPR being present in the interactomes (Cundell et al, [2016]).
(§2) PP1 and B55 cDNAs were cloned into modified versions of pcDNA5/FRT/TO (Invitrogen) to make N‐terminal fusions to YFP, BioID, or TurboID. Stable cell lines were generated into HeLa/FRT/TRex cells (kind gift from S. Taylor), and for YFP affinity, purification cells were synchronized with thymidine and released into nocodazole‐containing media to arrest them in mitosis. Cells were resuspended in lysis buffer (50 mM NaCl, 50 mM Tris 7,4, 1 mM EDTA, 0.1% NP40, 1 mM DTT, and protease inhibitor cocktail), and following sonication, the lysate was clarified by centrifugation. Cell lysate was incubated with GFP‐Trap beads (Chromotek) for 1 h, washed 3 × 1 ml with lysis buffer, and resuspended in SDS–PAGE loading buffer.
(§3) The Q‐Exactive Plus was set to perform an Orbitrap MS1 scan (R = 70 K; AGC target = 1e6) from 350 to 1,500 m/z, followed by HCD MS2 spectra on the 10 most abundant precursor ions detected by Orbitrap scanning (R = 17.5 K; AGC target = 1e5; max ion time = 50 ms) before repeating the cycle. Precursor ions were isolated for HCD by quadrupole isolation at width = 1 m/z and HCD fragmentation at 26 normalized collision energy (NCE). Charge state 2, 3, and 4 ions were selected for MS2. Precursor ions were added to a dynamic exclusion list ± 20 ppm for 15 s. […] Static modifications included carbamidomethylcysteine and variable modifications included oxidized methionine. […] Missing values were imputed from a normal distribution in Perseus to enable statistical analysis and visualization by volcano plot (Tyanova et al, [2016]). Statistical analysis was carried out in Perseus by two‐tailed Student's t‐test.
B1 was tested, and the “log2 ratio [Venus-B55/Venus]” value was 3.89. With B2 the “log2 ratio [Venus-B55/Venus]” value was 3.74. For B3, the “log2 ratio [Venus-B55/Venus]” value was 1.82.

Same assay, conditions: pulldown of Venus-B55 from mitotic cells, label-free LC-MS/MS, log2 IBAQ of co-purified protein, replicate 1
B1 was tested, and the “log2 IBAQ [Venus-B55 1]” value was 18.68. With B2 the “log2 IBAQ [Venus-B55 1]” value was 18.20. With B3 the “log2 IBAQ [Venus-B55 1]” value was 20.14.

Same assay, conditions: pulldown of Venus-B55 from mitotic cells, label-free LC-MS/MS, log2 IBAQ of co-purified protein, replicate 2
With B1 the “log2 IBAQ [Venus-B55 2]” value was 18.13. For B2, the “log2 IBAQ [Venus-B55 2]” value was 19.35. For B3, the “log2 IBAQ [Venus-B55 2]” value was 18.75.

Same assay, conditions: pulldown of Venus-B55 from mitotic cells, label-free LC-MS/MS, log2 IBAQ of co-purified protein, replicate 3
With B1 the “log2 IBAQ [Venus-B55 3]” value was 17.35. B2 was tested, and the “log2 IBAQ [Venus-B55 3]” value was 19.45. For B3, the “log2 IBAQ [Venus-B55 3]” value was 20.44.

Each molecule was assayed on Venus-PP1 (assay: Affinity purification (pulldown) of YFP/Venus-PP1 from mitotic cells, label-free LC-MS/MS). Conditions: assignment of the co-purified protein as interactor of Venus-B55 and/or Venus-PP1 (both pulldowns).
Assay type: binding, human
Description: as §1, §2, §3
With B1 the “B55 or PP1?” value was “B55/PP1”. B2 was tested, and the “B55 or PP1?” value was “B55/PP1”. In the case of B3, the “B55 or PP1?” value is reported as “B55/PP1”.

Same assay, conditions: enrichment in Venus-PP1 pulldown over Venus control, from 3 replicates each
With B1 the “log2 ratio [Venus-PP1/Venus]” value was 5.49. For B2, the “log2 ratio [Venus-PP1/Venus]” value was 4.15. In the case of B3, the “log2 ratio [Venus-PP1/Venus]” value is reported as 6.44.

Same assay, conditions: pulldown of Venus-PP1 from mitotic cells, label-free LC-MS/MS, log2 IBAQ of co-purified protein, replicate 1
B1 was tested, and the “log2 IBAQ [Venus-PP1 1]” value was 19.45. With B2 the “log2 IBAQ [Venus-PP1 1]” value was 19.13. B3 was tested, and the “log2 IBAQ [Venus-PP1 1]” value was 24.17.

Same assay, conditions: pulldown of Venus-PP1 from mitotic cells, label-free LC-MS/MS, log2 IBAQ of co-purified protein, replicate 2
With B1 the “log2 IBAQ [Venus-PP1 2]” value was 19.86. In the case of B2, the “log2 IBAQ [Venus-PP1 2]” value is reported as 19.69. B3 was tested, and the “log2 IBAQ [Venus-PP1 2]” value was 24.63.

Same assay, conditions: pulldown of Venus-PP1 from mitotic cells, label-free LC-MS/MS, log2 IBAQ of co-purified protein, replicate 3
For B1, the “log2 IBAQ [Venus-PP1 3]” value was 24.60. With B2 the “log2 IBAQ [Venus-PP1 3]” value was 20.57. B3 was tested, and the “log2 IBAQ [Venus-PP1 3]” value was 27.56.
